Measurements taken from patent US20250243243A1, “DISRUPTION OF SONIC HEDGEHOG-SURF4 INTERACTION FOR CANCER TREATMENT” (The Hong Kong University of Science and Technology, priority 2022, published 2025).

molecular target: ShhN^1-198-HA (mouse) (UniProt Q62226); assay: anti-HA immunoprecipitation from HEK293T lysate, label-free quantitative mass spectrometry; 1 unique peptide; Control Group, IGF2 Group and Abundance Ratio not given
Sequence (Q62226 25-198): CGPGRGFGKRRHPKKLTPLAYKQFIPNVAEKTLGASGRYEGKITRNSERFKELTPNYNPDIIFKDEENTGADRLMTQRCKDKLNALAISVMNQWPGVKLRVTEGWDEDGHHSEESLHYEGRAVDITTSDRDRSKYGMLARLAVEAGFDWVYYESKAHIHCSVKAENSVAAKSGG

abundance in The ShhN Group	Substance
2060	BHMT (from UniProt Q93088) (enzyme)
19800	GRIA1 (from UniProt P42261) (receptor)
8940	PPIB (from UniProt P23284) (enzyme)
45400	VPS51 (from UniProt Q9UID3)
